According to patent US11278600B2, “Human alpha-galactosidase variants” (Codexis, Inc., priority 2014, dated 2022):
Where a chain is given by its changes, count along the chain named.

B1: 590 (protein)
chain: LDNGLARTPTMGWLHWERFMCNLDCQEEPDSCISEKLFMEMAERMVSEGWKDAGYEYLCIDDCWMAPQRDSEGRLQADPQRFPHGIRQLANHVHSKGLKLGIYADVGNKTCAGFPGSFGYYDIDAQTFADWGVDLLKFDGCYCDSLENLADGYKHMSLALNRTGRSIVYSCEWPLYMWMFQKPNYTEIRQYCNHWRNFADIDDSWASIKSILDWTSRNQERIVDVAGPGGWNDPDMLVIGNFGLSWDQQVTQMALWAIMAAPLFMSNDLRHISPQAKALLQDKDVIAINQDPLGKQGYQLRKGDNFEVWERPLSGDAWAVAIINRQEIGGPRSYTIPVASLGKGVACNPACFITQLLPVKRQLGFYNWTSRLKSHINPTGTVLLQLENTMQMSLKDLL
modifications: Synthetic Polypeptide sequence of Variant No. 590 of mature Human GLA
B2: 601 (protein)
chain: B1 chain with M39C, M179P
modifications: Synthetic Polypeptide sequence of Variant No. 601 of mature Human GLA
B3: 595 (protein)
chain: B1 chain with M179P, T186A
modifications: Synthetic Polypeptide sequence of Variant No. 595 of mature Human GLA
B4: 597 (protein)
chain: B1 chain with M179P, T186V
modifications: Synthetic Polypeptide sequence of Variant No. 597 of mature Human GLA
B5: 596 (protein)
chain: B1 chain with M179P, T186G
modifications: Synthetic Polypeptide sequence of Variant No. 596 of mature Human GLA
B6: 591 (protein)
chain: B1 chain with M179P, R189K
modifications: Synthetic Polypeptide sequence of Variant No. 591 of mature Human GLA
B7: 593 (protein)
chain: B1 chain with S95A, M179P
modifications: Synthetic Polypeptide sequence of Variant No. 593 of mature Human GLA
B8: 599 (protein)
chain: B1 chain with Y120S, M179P
modifications: Synthetic Polypeptide sequence of Variant No. 599 of mature Human GLA
B9: 592 (protein)
chain: B1 chain with M179P, R189V
modifications: Synthetic Polypeptide sequence of Variant No. 592 of mature Human GLA
B10: 600 (protein)
chain: B1 chain with Y120S, M179P, L341F
modifications: Synthetic Polypeptide sequence of Variant No. 600 of mature Human GLA
B11: 598 (protein)
chain: B1 chain with Y120H, M179P
modifications: Synthetic Polypeptide sequence of Variant No. 598 of mature Human GLA
B12: 521 (protein)
chain: B1 chain with D52N, M179P
modifications: Synthetic Polypeptide sequence of Variant No. 521 of mature Human GLA
B13: 603 (protein)
chain: B1 chain with M39R, M179P
modifications: Synthetic Polypeptide sequence of Variant No. 603 of mature Human GLA
B14: 594 (protein)
chain: B1 chain with S95E, M179P
modifications: Synthetic Polypeptide sequence of Variant No. 594 of mature Human GLA
B15: 602 (protein)
chain: B1 chain with M39E, M179P
modifications: Synthetic Polypeptide sequence of Variant No. 602 of mature Human GLA

What was measured:
Type in all cases: biochemical
[1] = HTP-analysis of yeast culture supernatants, no challenge (MUGal hydrolysis); conditions: activity of the variant/activity of Rd3BB (SEQ ID NO: 13)
Summary of the method: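 GLA variants were expressed in INVSc1 yeast grown in SD-Ura broth with glucose at 30° C., and culture supernatants were collected after 66-84 h. Supernatant was mixed with McIlvaine buffer pH 4.8 and MUGal (2 mM stock) in 50 mM citrate, 200 mM KCl, pH 4.6, incubated at 37° C. for 30-180 minutes, then quenched with sodium carbonate.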

[2] = HTP-analysis of supernatants pretreated with acid (MUGal hydrolysis); conditions: activity of the variant/activity of Rd3BB (SEQ ID NO: 13); challenge at pH 3.7
Summary of the method: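 Fluorescence of MUGal hydrolysis (Ex. 355 nm, Em. 448 nm) is read after sodium carbonate quench. The enzyme source is INVSc1 yeast culture supernatant, first exposed to pH 3.3-4.3 McIlvaine buffer at 37° C. for 1-3 h, then reacted at pH 4.8 for 30-180 minutes.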

[3] = HTP-analysis of supernatants pretreated with base (MUGal hydrolysis); conditions: activity of the variant/activity of Rd3BB (SEQ ID NO: 13); challenge at pH 9.7
Summary of the method: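 Supernatants from INVSc1 yeast expressing GLA variants (SD-Ura, 66-84 h, 30° C) were mixed with McIlvaine buffer pH 7.0-8.2 or 200 mM sodium bicarbonate pH 9.1-9.7 and held 1-18 h at 37° C. Residual activity was then measured on MUGal at pH 4.8/4.3, 37° C, 30-180 min, by fluorescence (Ex 355/Em 448 nm).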

Molecule | Relative Activity of GLA Variants After No Challenge (NC) [1] | Relative Activity of GLA Variants After Challenge at pH 3.7 [2] | Relative Activity of GLA Variants After Challenge at pH 9.7 [3]
B1 | + (+ = 1.5 to 5 relative activity over Rd3BB (SEQ ID NO: 13)) | + (+ = 1.5 to 5 relative activity over Rd3BB (SEQ ID NO: 13)) | + (+ = 1.5 to 5 relative activity over Rd3BB (SEQ ID NO: 13))
B2 | − (− = <1.5 relative activity to Rd3BB (SEQ ID NO: 13)) | + (+ = 1.5 to 5 relative activity over Rd3BB (SEQ ID NO: 13)) | + (+ = 1.5 to 5 relative activity over Rd3BB (SEQ ID NO: 13))
B3 | + (+ = 1.5 to 5 relative activity over Rd3BB (SEQ ID NO: 13)) | + (+ = 1.5 to 5 relative activity over Rd3BB (SEQ ID NO: 13)) | + (+ = 1.5 to 5 relative activity over Rd3BB (SEQ ID NO: 13))
B4 | + (+ = 1.5 to 5 relative activity over Rd3BB (SEQ ID NO: 13)) | − (− = <1.5 relative activity to Rd3BB (SEQ ID NO: 13)) | + (+ = 1.5 to 5 relative activity over Rd3BB (SEQ ID NO: 13))
B5 | + (+ = 1.5 to 5 relative activity over Rd3BB (SEQ ID NO: 13)) | ++ (++ = >5 to 10 relative activity over Rd3BB (SEQ ID NO: 13)) | ++ (++ = >5 to 10 relative activity over Rd3BB (SEQ ID NO: 13))
B6 | + (+ = 1.5 to 5 relative activity over Rd3BB (SEQ ID NO: 13)) | + (+ = 1.5 to 5 relative activity over Rd3BB (SEQ ID NO: 13)) | ++ (++ = >5 to 10 relative activity over Rd3BB (SEQ ID NO: 13))
B7 | + (+ = 1.5 to 5 relative activity over Rd3BB (SEQ ID NO: 13)) | + (+ = 1.5 to 5 relative activity over Rd3BB (SEQ ID NO: 13)) | ++ (++ = >5 to 10 relative activity over Rd3BB (SEQ ID NO: 13))
B8 | + (+ = 1.5 to 5 relative activity over Rd3BB (SEQ ID NO: 13)) | + (+ = 1.5 to 5 relative activity over Rd3BB (SEQ ID NO: 13)) | ++ (++ = >5 to 10 relative activity over Rd3BB (SEQ ID NO: 13))
B9 | + (+ = 1.5 to 5 relative activity over Rd3BB (SEQ ID NO: 13)) | + (+ = 1.5 to 5 relative activity over Rd3BB (SEQ ID NO: 13)) | ++ (++ = >5 to 10 relative activity over Rd3BB (SEQ ID NO: 13))
B10 | + (+ = 1.5 to 5 relative activity over Rd3BB (SEQ ID NO: 13)) | +++ (+++ = >10 relative activity over Rd3BB (SEQ ID NO: 13)) | + (+ = 1.5 to 5 relative activity over Rd3BB (SEQ ID NO: 13))
B11 | + (+ = 1.5 to 5 relative activity over Rd3BB (SEQ ID NO: 13)) | + (+ = 1.5 to 5 relative activity over Rd3BB (SEQ ID NO: 13)) | ++ (++ = >5 to 10 relative activity over Rd3BB (SEQ ID NO: 13))
B12 | + (+ = 1.5 to 5 relative activity over Rd3BB (SEQ ID NO: 13)) | + (+ = 1.5 to 5 relative activity over Rd3BB (SEQ ID NO: 13)) | ++ (++ = >5 to 10 relative activity over Rd3BB (SEQ ID NO: 13))
B13 | + (+ = 1.5 to 5 relative activity over Rd3BB (SEQ ID NO: 13)) | + (+ = 1.5 to 5 relative activity over Rd3BB (SEQ ID NO: 13)) | + (+ = 1.5 to 5 relative activity over Rd3BB (SEQ ID NO: 13))
B14 | + (+ = 1.5 to 5 relative activity over Rd3BB (SEQ ID NO: 13)) | + (+ = 1.5 to 5 relative activity over Rd3BB (SEQ ID NO: 13)) | ++ (++ = >5 to 10 relative activity over Rd3BB (SEQ ID NO: 13))
B15 | + (+ = 1.5 to 5 relative activity over Rd3BB (SEQ ID NO: 13)) | + (+ = 1.5 to 5 relative activity over Rd3BB (SEQ ID NO: 13)) | ++ (++ = >5 to 10 relative activity over Rd3BB (SEQ ID NO: 13))
